Experimental data published in patent US20130281314A1.

Key:
BRCC36 (human) [1] = target: BRCC36 (human) (UniProt P46736); experiment: anti-HA IP-MS, HEK293T cells
OTUB1 (human) [2] = target: OTUB1 (human) (UniProt Q96FW1); experiment: anti-HA IP-MS, HEK293T cells
UCHL1 [3] = target: UCHL1 (UniProt P09936); experiment: anti-HA IP-MS, HEK293T cells
UCHL5 (human) [4] = target: UCHL5 (human) (UniProt Q9Y5K5); experiment: anti-HA IP-MS, HEK293T cells
USP10 [5] = experiment: anti-HA IP-MS, HEK293T cells
USP11 (human) [6] = target: USP11 (human) (UniProt P51784); experiment: anti-HA IP-MS, HEK293T cells
USP13 (human) [7] = target: USP13 (human) (UniProt Q92995); experiment: anti-HA IP-MS, HEK293T cells
USP14 (human) [8] = target: USP14 (human) (UniProt P54578); experiment: anti-HA IP-MS, HEK293T cells
USP15 (human) [9] = target: USP15 (human) (UniProt Q9Y4E8); experiment: anti-HA IP-MS, HEK293T cells
USP19 (human) = USP19 (human) (UniProt O94966); experiment: anti-HA IP-MS, HEK293T cells
USP24 (human) [10] = target: USP24 (human) (UniProt Q9UPU5); experiment: anti-HA IP-MS, HEK293T cells
USP25 (human) [11] = target: USP25 (human) (UniProt Q9UHP3); experiment: anti-HA IP-MS, HEK293T cells
USP34 [12] = experiment: anti-HA IP-MS, HEK293T cells
USP47 (human) [13] = target: USP47 (human) (UniProt Q96K76); experiment: anti-HA IP-MS, HEK293T cells
USP8 (human) [14] = target: USP8 (human) (UniProt P40818); experiment: anti-HA IP-MS, HEK293T cells
USP9X (human) [15] = target: USP9X (human) (UniProt Q93008); experiment: anti-HA IP-MS, HEK293T cells
BRCC36 (human) [16] = target: BRCC36 (human) (UniProt P46736); experiment: anti-HA IP-MS, WT HCT116 cells
OTUB1 (human) [17] = target: OTUB1 (human) (UniProt Q96FW1); experiment: anti-HA IP-MS, WT HCT116 cells
UCHL1 [18] = target: UCHL1 (UniProt P09936); experiment: anti-HA IP-MS, WT HCT116 cells
UCHL5 (human) [19] = target: UCHL5 (human) (UniProt Q9Y5K5); experiment: anti-HA IP-MS, WT HCT116 cells
USP10 [20] = experiment: anti-HA IP-MS, WT HCT116 cells
USP11 (human) [21] = target: USP11 (human) (UniProt P51784); experiment: anti-HA IP-MS, WT HCT116 cells
USP13 (human) [22] = target: USP13 (human) (UniProt Q92995); experiment: anti-HA IP-MS, WT HCT116 cells
USP14 (human) [23] = target: USP14 (human) (UniProt P54578); experiment: anti-HA IP-MS, WT HCT116 cells
USP15 (human) [24] = target: USP15 (human) (UniProt Q9Y4E8); experiment: anti-HA IP-MS, WT HCT116 cells
USP24 (human) [25] = target: USP24 (human) (UniProt Q9UPU5); experiment: anti-HA IP-MS, WT HCT116 cells
USP25 (human) [26] = target: USP25 (human) (UniProt Q9UHP3); experiment: anti-HA IP-MS, WT HCT116 cells
USP34 [27] = experiment: anti-HA IP-MS, WT HCT116 cells
USP47 (human) [28] = target: USP47 (human) (UniProt Q96K76); experiment: anti-HA IP-MS, WT HCT116 cells
USP8 (human) [29] = target: USP8 (human) (UniProt P40818); experiment: anti-HA IP-MS, WT HCT116 cells
USP9X (human) [30] = target: USP9X (human) (UniProt Q93008); experiment: anti-HA IP-MS, WT HCT116 cells

USP8 (human), sequence (P40818 whole entry): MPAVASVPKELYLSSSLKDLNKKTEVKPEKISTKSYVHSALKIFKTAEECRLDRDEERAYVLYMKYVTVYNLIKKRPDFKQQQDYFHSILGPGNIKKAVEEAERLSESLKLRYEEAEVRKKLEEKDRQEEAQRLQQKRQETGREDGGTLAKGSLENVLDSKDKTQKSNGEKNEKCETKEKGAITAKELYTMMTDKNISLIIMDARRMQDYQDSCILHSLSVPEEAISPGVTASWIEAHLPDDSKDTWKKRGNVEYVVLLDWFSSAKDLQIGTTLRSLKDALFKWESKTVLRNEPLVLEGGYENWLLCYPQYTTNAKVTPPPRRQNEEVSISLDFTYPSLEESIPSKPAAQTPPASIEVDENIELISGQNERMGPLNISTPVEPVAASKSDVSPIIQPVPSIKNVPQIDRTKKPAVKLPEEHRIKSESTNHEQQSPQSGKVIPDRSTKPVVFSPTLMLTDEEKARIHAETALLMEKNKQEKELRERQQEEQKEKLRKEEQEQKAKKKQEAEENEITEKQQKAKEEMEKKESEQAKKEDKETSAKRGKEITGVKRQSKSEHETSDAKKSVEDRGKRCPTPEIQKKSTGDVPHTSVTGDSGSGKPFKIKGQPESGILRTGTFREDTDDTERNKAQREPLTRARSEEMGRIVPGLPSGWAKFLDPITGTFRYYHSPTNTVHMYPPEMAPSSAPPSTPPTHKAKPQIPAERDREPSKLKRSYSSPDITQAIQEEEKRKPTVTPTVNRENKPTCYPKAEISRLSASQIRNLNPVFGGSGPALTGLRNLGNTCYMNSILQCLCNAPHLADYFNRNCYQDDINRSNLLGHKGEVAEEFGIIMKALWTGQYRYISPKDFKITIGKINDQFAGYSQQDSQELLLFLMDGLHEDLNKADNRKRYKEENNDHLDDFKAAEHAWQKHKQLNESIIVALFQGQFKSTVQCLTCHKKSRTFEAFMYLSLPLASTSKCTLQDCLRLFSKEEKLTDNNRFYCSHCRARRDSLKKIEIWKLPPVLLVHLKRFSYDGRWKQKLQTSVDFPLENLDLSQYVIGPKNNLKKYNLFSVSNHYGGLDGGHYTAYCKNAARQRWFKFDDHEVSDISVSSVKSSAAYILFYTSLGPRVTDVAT
UCHL1, sequence (P09936 1-220 limits assumed): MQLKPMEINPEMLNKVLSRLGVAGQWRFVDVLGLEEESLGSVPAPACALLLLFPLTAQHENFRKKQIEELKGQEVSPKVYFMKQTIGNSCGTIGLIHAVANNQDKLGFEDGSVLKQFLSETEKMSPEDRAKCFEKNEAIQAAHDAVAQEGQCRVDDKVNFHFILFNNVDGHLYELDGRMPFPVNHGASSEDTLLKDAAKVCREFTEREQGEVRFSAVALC
USP9X (human), sequence (Q93008 whole entry): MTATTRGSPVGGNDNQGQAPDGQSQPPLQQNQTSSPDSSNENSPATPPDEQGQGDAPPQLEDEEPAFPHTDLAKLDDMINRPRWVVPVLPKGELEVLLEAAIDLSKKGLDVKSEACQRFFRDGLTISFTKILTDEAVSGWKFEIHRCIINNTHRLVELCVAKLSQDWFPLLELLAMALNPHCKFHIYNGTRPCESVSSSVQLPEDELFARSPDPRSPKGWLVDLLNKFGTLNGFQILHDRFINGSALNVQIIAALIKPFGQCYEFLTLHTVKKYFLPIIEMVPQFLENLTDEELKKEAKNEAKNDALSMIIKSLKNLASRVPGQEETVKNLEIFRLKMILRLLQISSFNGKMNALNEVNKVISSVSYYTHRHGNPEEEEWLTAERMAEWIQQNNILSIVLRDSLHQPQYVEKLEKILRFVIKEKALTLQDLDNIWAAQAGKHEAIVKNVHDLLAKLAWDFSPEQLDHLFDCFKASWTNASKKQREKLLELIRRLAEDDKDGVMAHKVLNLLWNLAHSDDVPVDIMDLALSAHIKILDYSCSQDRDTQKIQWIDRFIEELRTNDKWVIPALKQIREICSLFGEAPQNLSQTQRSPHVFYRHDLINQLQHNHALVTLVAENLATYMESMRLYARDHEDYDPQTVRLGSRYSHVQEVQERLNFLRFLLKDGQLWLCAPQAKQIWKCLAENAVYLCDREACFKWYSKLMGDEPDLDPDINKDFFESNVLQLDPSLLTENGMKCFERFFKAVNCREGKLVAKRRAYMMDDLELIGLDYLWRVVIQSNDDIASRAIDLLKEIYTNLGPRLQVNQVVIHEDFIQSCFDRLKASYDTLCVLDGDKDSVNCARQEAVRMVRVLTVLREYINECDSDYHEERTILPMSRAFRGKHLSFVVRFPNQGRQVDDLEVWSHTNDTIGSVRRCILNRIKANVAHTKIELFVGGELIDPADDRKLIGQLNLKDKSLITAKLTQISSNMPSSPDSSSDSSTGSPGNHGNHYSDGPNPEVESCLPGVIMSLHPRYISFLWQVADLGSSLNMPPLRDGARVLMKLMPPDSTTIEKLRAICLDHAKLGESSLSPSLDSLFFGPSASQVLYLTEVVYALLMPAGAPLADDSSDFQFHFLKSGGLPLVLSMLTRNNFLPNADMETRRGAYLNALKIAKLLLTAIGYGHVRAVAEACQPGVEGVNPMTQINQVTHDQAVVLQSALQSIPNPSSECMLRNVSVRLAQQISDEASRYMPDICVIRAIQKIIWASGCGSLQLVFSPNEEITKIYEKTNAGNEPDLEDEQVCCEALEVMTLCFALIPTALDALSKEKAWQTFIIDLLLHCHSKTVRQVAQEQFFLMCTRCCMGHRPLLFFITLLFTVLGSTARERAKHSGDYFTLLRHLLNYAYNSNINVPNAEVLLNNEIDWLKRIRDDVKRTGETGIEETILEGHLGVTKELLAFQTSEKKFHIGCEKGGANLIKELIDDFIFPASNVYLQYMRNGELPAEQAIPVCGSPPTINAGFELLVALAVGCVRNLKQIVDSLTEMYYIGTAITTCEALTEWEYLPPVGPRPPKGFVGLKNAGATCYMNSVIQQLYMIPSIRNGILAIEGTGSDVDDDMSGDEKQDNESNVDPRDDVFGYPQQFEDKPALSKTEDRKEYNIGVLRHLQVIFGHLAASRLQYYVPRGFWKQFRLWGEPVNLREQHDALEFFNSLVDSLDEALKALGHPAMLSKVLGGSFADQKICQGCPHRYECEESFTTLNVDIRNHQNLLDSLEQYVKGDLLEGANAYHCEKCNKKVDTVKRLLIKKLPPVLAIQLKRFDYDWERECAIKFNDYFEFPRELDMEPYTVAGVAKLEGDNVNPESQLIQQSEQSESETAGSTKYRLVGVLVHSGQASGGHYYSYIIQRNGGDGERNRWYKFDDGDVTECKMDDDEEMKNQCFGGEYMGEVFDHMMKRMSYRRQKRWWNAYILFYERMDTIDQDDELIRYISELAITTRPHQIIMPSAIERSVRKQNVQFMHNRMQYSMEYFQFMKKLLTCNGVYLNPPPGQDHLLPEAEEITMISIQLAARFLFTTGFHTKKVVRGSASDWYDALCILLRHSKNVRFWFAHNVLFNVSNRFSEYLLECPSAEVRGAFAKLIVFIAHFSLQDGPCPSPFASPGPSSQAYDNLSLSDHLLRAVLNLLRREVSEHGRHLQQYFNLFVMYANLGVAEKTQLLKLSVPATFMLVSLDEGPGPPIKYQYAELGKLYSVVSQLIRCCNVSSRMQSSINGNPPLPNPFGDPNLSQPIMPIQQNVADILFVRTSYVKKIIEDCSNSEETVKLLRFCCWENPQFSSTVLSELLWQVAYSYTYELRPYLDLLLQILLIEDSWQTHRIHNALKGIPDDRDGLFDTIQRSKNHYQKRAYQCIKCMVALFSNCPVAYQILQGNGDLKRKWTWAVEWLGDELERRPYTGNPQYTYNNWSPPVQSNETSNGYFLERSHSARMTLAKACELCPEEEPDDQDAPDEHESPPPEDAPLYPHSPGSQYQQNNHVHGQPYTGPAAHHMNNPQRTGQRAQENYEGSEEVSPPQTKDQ
USP13 (human), sequence (Q92995 whole entry): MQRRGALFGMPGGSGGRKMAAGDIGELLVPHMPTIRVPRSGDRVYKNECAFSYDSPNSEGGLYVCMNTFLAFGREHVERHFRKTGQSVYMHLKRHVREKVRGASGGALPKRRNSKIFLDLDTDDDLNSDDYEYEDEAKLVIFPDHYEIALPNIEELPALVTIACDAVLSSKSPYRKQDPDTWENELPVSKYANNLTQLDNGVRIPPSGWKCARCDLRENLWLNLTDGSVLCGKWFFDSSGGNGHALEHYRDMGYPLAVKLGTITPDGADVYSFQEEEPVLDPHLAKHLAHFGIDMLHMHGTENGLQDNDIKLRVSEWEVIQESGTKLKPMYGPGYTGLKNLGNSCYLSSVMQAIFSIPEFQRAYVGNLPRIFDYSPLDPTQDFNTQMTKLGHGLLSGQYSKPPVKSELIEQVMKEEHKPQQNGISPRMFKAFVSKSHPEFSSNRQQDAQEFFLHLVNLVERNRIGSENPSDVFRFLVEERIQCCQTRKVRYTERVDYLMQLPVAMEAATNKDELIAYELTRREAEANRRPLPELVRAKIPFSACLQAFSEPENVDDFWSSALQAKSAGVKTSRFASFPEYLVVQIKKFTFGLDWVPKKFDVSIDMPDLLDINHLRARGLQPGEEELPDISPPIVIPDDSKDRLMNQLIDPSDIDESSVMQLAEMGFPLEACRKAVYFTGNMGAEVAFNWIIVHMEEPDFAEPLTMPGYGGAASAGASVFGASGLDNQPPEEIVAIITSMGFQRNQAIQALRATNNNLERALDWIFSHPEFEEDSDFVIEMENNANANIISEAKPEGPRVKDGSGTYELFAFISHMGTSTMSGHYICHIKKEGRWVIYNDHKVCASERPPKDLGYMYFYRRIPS
BRCC36 (human), sequence (P46736 2-316 limits assumed): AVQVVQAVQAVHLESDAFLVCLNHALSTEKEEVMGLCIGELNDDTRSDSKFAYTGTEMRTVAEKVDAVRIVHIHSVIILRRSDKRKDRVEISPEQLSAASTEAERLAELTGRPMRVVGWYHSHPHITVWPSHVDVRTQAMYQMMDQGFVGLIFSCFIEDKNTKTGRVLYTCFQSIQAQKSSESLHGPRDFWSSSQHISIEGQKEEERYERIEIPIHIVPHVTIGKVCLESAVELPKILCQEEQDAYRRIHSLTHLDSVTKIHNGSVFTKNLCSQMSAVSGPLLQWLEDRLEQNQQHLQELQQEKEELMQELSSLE

HA-UbΔGG
total peptides (unique peptides) (BRCC36 (human) [1]): 0 peptides | total peptides (unique peptides) (OTUB1 (human) [2]): 9 peptides | total peptides (unique peptides) (UCHL1 [3]): 3 peptides | total peptides (unique peptides) (UCHL5 (human) [4]): 9 peptides | total peptides (unique peptides) (USP10 [5]): 6 peptides | total peptides (unique peptides) (USP11 (human) [6]): 4 peptides | total peptides (unique peptides) (USP13 (human) [7]): 0 peptides | total peptides (unique peptides) (USP14 (human) [8]): 4 peptides | total peptides (unique peptides) (USP15 (human) [9]): 1 peptides | total peptides (unique peptides) (USP19 (human)): 54 peptides | total peptides (unique peptides) (USP24 (human) [10]): 20 peptides | total peptides (unique peptides) (USP25 (human) [11]): 2 peptides | total peptides (unique peptides) (USP34 [12]): 1 peptides | total peptides (unique peptides) (USP47 (human) [13]): 2 peptides | total peptides (unique peptides) (USP8 (human) [14]): 1 peptides | total peptides (unique peptides) (USP9X (human) [15]): 40 peptides | total peptides (unique peptides) (BRCC36 (human) [16]): 1 peptides | total peptides (unique peptides) (OTUB1 (human) [17]): 10 peptides | total peptides (unique peptides) (UCHL1 [18]): 0 peptides | total peptides (unique peptides) (UCHL5 (human) [19]): 6 peptides | total peptides (unique peptides) (USP10 [20]): 8 peptides | total peptides (unique peptides) (USP11 (human) [21]): 10 peptides | total peptides (unique peptides) (USP13 (human) [22]): 1 peptides | total peptides (unique peptides) (USP14 (human) [23]): 3 peptides | total peptides (unique peptides) (USP15 (human) [24]): 7 peptides | total peptides (unique peptides) (USP24 (human) [25]): 1 peptides | total peptides (unique peptides) (USP25 (human) [26]): 34 peptides | total peptides (unique peptides) (USP34 [27]): 0 peptides | total peptides (unique peptides) (USP47 (human) [28]): 0 peptides | total peptides (unique peptides) (USP8 (human) [29]): 3 peptides | total peptides (unique peptides) (USP9X (human) [30]): 12 peptides
